{
  "source": "paper PMC2796084",
  "about": "(Biochemistry, 2009)",
  "proteins": {"B1": {"name": "FtsZ-L68W (natural protein, E. coli, UniProt P0A9A6 1-383, looked up)", "chain": "MFEPMELTNDAVIKVIGVGGGGGNAVEHMVRERIEGVEFFAVNTDAQALRKTAVGQTIQIGSGITKGWGAGANPEVGRNAADEDRDALRAALEGADMVFIAAGMGGGTGTGAAPVVAEVAKDLGILTVAVVTKPFNFEGKKRMAFAEQGITELSKHVDSLITIPNDKLLKVLGRGISLLDAFGAANDVLKGAVQGIAELITRPGLMNVDFADVRTVMSEMGYAMMGSGVASGEDRAEEAAEMAISSPLLEDIDLSGARGVLVNITAGFDLRLDEFETVGNTIRAFASDNATVVIGTSLDPDMNDELRVTVVATGIGMDKRPEITLVTNKQVQQPVMDRYQQHGMAPLTQEQKPVAKVVNDNAPQTAKEPDYLDIPAFLRKQAD"}},
  "biological_target": "the molecule itself",
  "assay": "tryptophan fluorescence",
  "data": [
    {"protein": "B1", "values": [
      {"measurement": "binding result", "value": "binds"}
    ]}
  ]
}
